Assay results as given in patent publication US20230322957A1 (ENGMAB SARL, published 2023).
Numbering of substitutions follows the chain as printed.

B1: Mab 42 IgG (antibody, V domains shown)
VH: EVQLLESGGGLVQPGGSLRLSCAASGFTFSDNAMGWVRQAPGKGLEWVSAISGPGSSTYYADSVKGRFTISRDNSKNTLYLQMNSLRAEDTAVYYCAKVLGWFDYWGQGTLVTVSS
VL: EIVLTQSPGTLSLSPGERATLSCRASQSVSDEYLSWYQQKPGQAPRLLIHSASTRATGIPDRFSGSGSGTDFTLAISRLEPEDFAVYYCQQYGYPPDFTFGQGTKVEIK
notes: Tested as human IgG1; also called antibody 42; clone 42
B2: Mab 39 IgG (antibody, V domains shown)
VH: B1 VH with S30T, D31Q, G53P, P54T, S56F
VL: B1 VL with D31E, E32Y, S35A, H50E, S51H, A75T
notes: Tested as human IgG1

Target: recombinant cynomolgus BCMA Fc(kih) (cynomolgus, UniProt A0A2K5UD97 4-51, biotinylated in vivo at the avi-tag at the C-terminus of the Fc knob chain)
Sequence (A0A2K5UD97 entry or part of it): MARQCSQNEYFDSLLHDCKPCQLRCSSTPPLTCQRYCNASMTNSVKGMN
Assay: ratio of the SPR KDs of Table 4, human BCMA as reference
Experimental: Assessment of binding of anti-BCMA antibodies to recombinant BCMA by surface plasmon resonance (SPR) as follow. All SPR experiments were performed on a Biacore T200 at 25° C. with HBS-EP as running buffer (0.01M HEPES pH 7.4, 0.15M NaCl, 3 mM EDTA, 0.005% Surfactant P20, Biacore, Freiburg/Germany). The avidity of the interaction between anti-BCMA antibodies and recombinant BCMA Fc(kih) (human and cynomolgus) was determined. Biotinylated recombinant human and cynomolgus BCMA Fc(kih) were directly coupled on a SA chip following instructions (Biacore, Freiburg/Germany). The immobilization level ranged from 200 to 700 RU. […] The dissociation was monitored for 180 seconds. Bulk refractive index differences were corrected for by subtracting the response obtained on the reference flow cell. Here, the anti-BCMA antibodies were flown over an empty surface previously activated and deactivated as described in the standard amine coupling kit. Apparent kinetic constants were derived using the Biacore T200 Evaluation Software (vAA, Biacore AB, Uppsala/Sweden), to fit rate equations for 1:1 Langmuir binding by numerical integration, despite the bivalency of the interaction for comparison purposes. The affinity of the interaction between anti-BCMA antibodies and recombinant human BCMA Fc(kih) was also determined. Anti-human Fab antibody (GE Healthcare) was directly coupled on a CM5 chip at pH 5.0 using the standard amine coupling kit (Biacore, Freiburg/Germany). The immobilization level was about 6500 RU. […] The dissociation was monitored for 120 seconds. Bulk refractive index differences were corrected for by subtracting the response obtained on reference flow cell. […] Kinetic constants were derived using the Biacore T100 Evaluation Software (vAA, Biacore AB, Uppsala/Sweden), to fit rate equations for 1:1 Langmuir binding by numerical integration (Table 4).

Row | Binder | Affinity cyno/hu gap (KD cynomolgus BCMA / KD human BCMA) [fold]
1 | B1 | 1.7
2 | B2 | 14
